B1: NF-kappa-B essential modulator (Mus musculus), O88522 (parent)
chain: MNKHPWKNQLSEMVQPSGGPAEDQDMLGEESSLGKPAMLHLPSEQGTPETLQRCLEENQELRDAIRQSNQMLRERCEELLHFQVSQREEKEFLMCKFQEARKLVERLSLEKLDLRSQREQALKELEQLKKCQQQMAEDKASVKAQVTSLLGELQESQSRLEAATKDRQALEGRIRAVSEQVRQLESEREVLQQQHSVQVDQLRMQNQSVEAALRMERQAASEEKRKLAQLQAAYHQLFQDYDSHIKSSKGMQLEDLRQQLQQAEEALVAKQELIDKLKEEAEQHKIVMETVPVLKAQADIYKADFQAERHAREKLVEKKEYLQEQLEQLQREFNKLKVGCHESARIEDMRKRHVETPQPPLLPAPAHHSFHLALSNQRRSPPEEPPDFCCPKCQYQAPDMDTLQIHVMECIE

Test [1] covers variants of B1. Conditions: with ubc_human UBC.
Variants of B1 are the subject of test [2]. Conditions: with ubc_human UBC. This is another data set of the same source.

Results on two variants are retold here after IntAct's records for PubMed 19763089.

Chain of ubc_human UBC, P0CG48 (P0CG48 whole entry, looked up): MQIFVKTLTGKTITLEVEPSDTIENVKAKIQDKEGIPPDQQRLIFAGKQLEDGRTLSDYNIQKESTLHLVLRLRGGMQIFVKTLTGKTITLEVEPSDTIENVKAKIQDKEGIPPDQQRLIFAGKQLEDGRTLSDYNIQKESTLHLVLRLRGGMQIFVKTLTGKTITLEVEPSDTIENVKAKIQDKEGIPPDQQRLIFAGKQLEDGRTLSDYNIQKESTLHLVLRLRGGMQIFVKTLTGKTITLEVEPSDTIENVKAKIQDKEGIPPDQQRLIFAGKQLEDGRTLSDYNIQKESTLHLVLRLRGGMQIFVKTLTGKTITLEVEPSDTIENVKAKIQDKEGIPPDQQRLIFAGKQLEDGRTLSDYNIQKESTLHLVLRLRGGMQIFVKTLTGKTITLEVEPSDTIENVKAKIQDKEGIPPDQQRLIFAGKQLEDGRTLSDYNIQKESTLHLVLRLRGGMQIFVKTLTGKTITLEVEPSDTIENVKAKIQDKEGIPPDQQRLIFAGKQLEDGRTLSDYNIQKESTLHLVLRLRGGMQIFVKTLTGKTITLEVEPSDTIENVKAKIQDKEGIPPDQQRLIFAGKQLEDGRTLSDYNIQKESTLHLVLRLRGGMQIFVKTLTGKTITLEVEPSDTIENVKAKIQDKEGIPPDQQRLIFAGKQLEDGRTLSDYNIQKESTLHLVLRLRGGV

Y301S: the “effect of a mutation on the interaction” value with ubc_human UBC, P0CG48 [1] was “disrupting interaction”; with ubc_human UBC, P0CG48 [2], “decreasing interaction”.
Turning to D304N, the “effect of a mutation on the interaction” value is “disrupting interaction” with ubc_human UBC, P0CG48 [1] and “decreasing interaction” with ubc_human UBC, P0CG48 [2].
